The record followed here is patent US20160040149A1, “Compositions Having Dicamba Decarboxylase Activity and Methods of Use” (priority 2013, published 2016).

The nature of assay [1]: DNA shuffling libraries: 14CO2 capturing assay in 384-well format, fold activity of backbone (Megatable 2). Conditions: relative to backbone SEQ ID NO: 133 (DDEC0201).
Assay [2] can be described thus: Saturation mutagenesis of SEQ ID NO:109: dicamba decarboxylation activity of point mutants (CO2 released), fold of backbone (Tables 7, 8, Megatable 1). As to conditions: decarboxylation activity (CO2 released) of point mutant vs unmutated backbone protein; backbone SEQ ID NO: 109.

B1: 148 (protein)
chain: MAQGKEALEEHFAIPETLNDSAGFVPGDYWKELQHRLLDIQDTRLKLMDAHQIETMILSLAAVGVQAIPDRRKAIEIARRANDMLAEECAKRPDRFLAFAALPLQDVDAASEELQRTVNTLGFVGALVNGFSVEGDGQTPLYYDLPQYRPFWGEVEKLDVPFYLHPRNPLPQDSRIYDGHPWLLGPTWAFAQETAVHALRLMASGLFDEHPRLNIILGHLGEGLPYMMYRIDHRIAWVKLPPRYPAKRRFMDYFNENFHITTSGNFRTQTLIDAILEIGADRILFSTDWPFENIDHAAAWFNATSIAEADRVKIGRTNARRLFKLDGA
modifications: Dicamba decarboxylase variant
For the molecule B1, the results for the “Fold Activity” value in assay [1] and in assay [2] were 0.8 fold and 1.5 fold, respectively.

B2: 138 (protein)
chain: MAQGKVALEEHFAIPETLQDSAGFVPGDYWKELQHRLLDIQDTRLKLMDAHGIETMILSLAAPAVQAIPDRRKAIEIARRANDFLAEECAKRPDRFLAFAALPLQDPDAATEELQRCVNDLGFVGALVNGFSQEGDGQTPLYYDLPQYRPFWGEVEKLDVPFYLHPRNPLPQDSRIYDGHPWLLGPTWAFAQETAVHALRLMASGLFDEHPRLNIILGHMGEGLPYMMYRIDHRIAWVHEPPRYPAKRRFMDYFNENFHITTSGNFRTQTLIDAILEIGADRILFSTDWPFENIDHAADWFNATSIAEADRLKIGRTNARRLFKLDLD
modifications: Dicamba decarboxylase variant
On to B2, for which the “Fold Activity” value is 1.1 fold in assay [1] and 0.7 fold in assay [2].

B3: 146 (protein)
chain: MAQGKVALEEHFAIPETLQDSAGFVPGDYWKELQHRLLDIQDTRLKLMDAHGIETMILSLAAPAVQAIPDRRKAIEIARRANDFLAEECAKRPDRFLAFAALPLQDPDAATEELQRCVNDLGFVGALVNGFSQEGDGQTPLYYDLPQYRPFWGEVEKLDVPFYLHPRNPLPQDSRIYDGHPWLLGPTWAFAQETAVHALRLMASGLFDEHPRLNIILGHMGEGLPYMMYRIDHRIAWVKLPPRYPAKRRFMDYFNENFHITTSGNFRTQTLIDAILEIGADRILFSTDWPFENIDHAADWFNATSIAEADRVKIGRTNARRLFKLDGD
modifications: Dicamba decarboxylase variant
Consider B3, for which the “Fold Activity” value in assay [1] was determined as 1.2 fold; in assay [2], 1.3 fold.

B4: 149 (protein)
chain: MAQGKVALEEHFAIPETLQDSAGFVPSEYLKELQHRLLDIQDTRLKLMDAHGIETMILSLAAPAVQAIPDRRKAIEIARRANDMLAEECAKRPDRFLAFAALPLQDPDAATEELQRCVNTLGFVGALVNGFSVEGDGQTPLYYDLPQYRPFWGEVEKLDVPFYLHPRNPLPQDSRIYDGHPWLLGPTWAFAQETAVHALRLMASGLFDEHPRLNIILGHLGEGLPYMMYRIDHRIAWVHEPPRYPAKRRFMDYFNENFHITTSGNFRTQTLIDAILEIGADRILFSTDWPFENIDHAADWFNATSIAEADRVKIGRTNARRLFKLDGD
modifications: Dicamba decarboxylase variant
For B4, the figures for the “Fold Activity” value in assay [1] and in assay [2] were 1.1 fold and 1.6 fold, respectively.

B5: 139 (protein)
chain: MAQGKVALEEHFAIPETLQDSAGFVPGDYWKELQHRLLDIQDTRLKLMDAHGIETMILSLAAPAVQAIPDRRKAIEIARRANDFLAEECAKRPDRFLAFAALPLQDPDAATEELQRCVNDLGFVGALVNGFSQEGDGQTPLYYDLPQYRPFWGEVEKLDVPFYLHPRNPLPQDSRIYDGHPWLLGPTWAFAQETAVHALRLMASGLFDEHPRLNIILGHMGEGLPYMMYRIDHRIAWVKLPPRYPAKRRFMDYFNENFHITTSGNFRTQTLIDAILEIGADRILFSTDWPFENIDHAADWFNATSIAEADRLKIGRTNARRLFKLDGD
modifications: Dicamba decarboxylase variant
Consider B5, for which the “Fold Activity” value in assay [1] was 1.1 fold; in assay [2], 1.4 fold.

B6: 141 (protein)
chain: MAQGKVALEEHFAIPETLNDSAGFVPGDYWKELQHRLLDIQDTRLKLMDAHGIETMILSLAAPAVQAIPDRRKAIEIARRANDMLAEECAKRPDRFLAFAALPLQDPDAATEELQRCVNDLGFVGALVNGFSQEGDGQTPLYYDLPQYRPFWGEVEKLDVPFYLHPRNPLPQDSRIYDGHPWLLGPTWAFAQETAVHALRLMASGLFDEHPRLNIILGHMGEGLPYMMYRIDHRIAWVHEPPRYPAKRRFMDYFNENFHITTSGNFRTQTLIDAILEIGADRILFSTDWPFENIDHAADWFNATSIAEADRVKIGRTNARRLFKLDLD
modifications: Dicamba decarboxylase variant
Take B6: the “Fold Activity” value is reported as 0.9 fold in assay [1] and 1.1 fold in assay [2].

B7: 144 (protein)
chain: MAQGKVALEEHFAIPETLQDSAGFVPGDYWKELQHRLLDIQDTRLRLMDAHGIETMILSLAAPAVQAIPDRRKAIEIARRANDFLAEECAKRPDRFLAFAALPLQDPDAASEELQRCVNDLGFVGALVNGFSQEGDGQTPLYYDLPQYRPFWGEVEKLDVPFYLHPRNPLPQDSRIYDGHPWLLGPTWAFAQETAVHALRLMASGLFDEHPRLNIILGHMGEGLPYMMYRIDHRIAWVHEPPRYPAKRRFMDYFNENFHITTSGNFRTQTLIDAILEIGADRILFSTDWPFENIDHAADWFNATSIAEADRLKIGRTNARRLFKLDGD
modifications: Dicamba decarboxylase variant
Turning to B7, the “Fold Activity” value in assay [1] and in assay [2] was 1.2 fold in each case.

B8: 140 (protein)
chain: MAQGKVALEEHFAIPETLQDSAGFVPGDYWKELQHRLLDIQDTRLKLMDAHGIETMILSLAAPAVQAIPDRRKAIEIARRANDFLAEECAKRPDRFLAFAALPLQDPDAATEELQRCVNDLGFVGALVNGFSQEGDGQTPLYYDLPQYRPFWGEVEKLDVPFYLHPRNPLPQDSRIYDGHPWLLGPTWAFAQETAVHALRLMASGLFDEHPRLNIILGHLGEGLPYMMYRIDHRIAWVHEPPRYPAKRRFMDYFNENFHITTSGNFRTQTLIDAILEIGADRILFSTDWPFENIDHAADWFNATSIAEADRVKIGRTNARRLFKLDGA
modifications: Dicamba decarboxylase variant
As to B8, the “Fold Activity” value in assay [1] and in assay [2] was 1.1 fold each time.

B9: 145 (protein)
chain: MAQGKVALEEHFAIPETLQDSAGFVPGDYWKELQHRLLDIQDTRLKLMDAHGIETMILSLAAPAVQAIPDRRKAIEIARRANDFLAEECAKRPDRFLAFAALPLQDPDAATEELQRCVNDLGFVGALVNGFSVEGDGQTPLYYDLPQYRPFWGEVEKLDVPFYLHPRNPLPQDSRIYDGHPWLLGPTWAFAQETAVHALRLMASGLFDEHPRLNIILGHMGEGLPYMMYRIDHRIAWVKLPPRYPAKRRFMDYFNENFHITTSGNFRTQTLIDAILEIGADRILFSTDWPFENIDHATDWFNATSIAEADRVKIGRTNARRLFKLDGA
modifications: Dicamba decarboxylase variant
B9: the results for the “Fold Activity” value in assay [1] and in assay [2] were 1.1 fold and 1.2 fold, respectively.

B10: 147 (protein)
chain: MAQGKVALEEHFAIPETLQDSAGFVPGDYWKELQHRLLDIQDTRLKLMDAHGIETMILSLAAPAVQAIPDRRKAIEIARRANDFLAEECAKRPDRFLAFAALPMQDVDAATEELQRCVNDLGFVGALVNGFSQEGDGQTPLYYDLPQYRPFWGEVEKLDVPFYLHPRNPLPQDSRIYDGHPWLLGPTWAFAQETAVHALRLMASGLFDEHPRLNIILGHMGEGLPYMMYRIDHRIAWVKLPPRYPAKRRFMDYFNENFHITTSGNFRTQTLIDAILEIGADRILFSTDWPFENIDHAADWFNATSIAEADRLKIGRTNARRLFKLDLD
modifications: Dicamba decarboxylase variant
For B10, the “Fold Activity” value in assay [1] came to 0.8 fold; in assay [2], 1.3 fold.

B11: 142 (protein)
chain: MAQGKVALEEHFAIPETLQDSAGFVPGDYWKELQHRLLDIQDTRLKLMDAHGIETMILSLAAPAVQAIPDRRKAIEIARRANDFLAEECAKRPDRFLAFAALPLQDPDAATEELQRTVNDLGFVGALVNGFSQEGDGQTPLYYDLPQYRPFWGEVEKLDVPFYLHPRNPLPQDSRIYDGHPWLLGPTWAFAQETAVHALRLMASGLFDEHPRLNIILGHLGEGLPYMMYRIDHRIAWVHEPPRYPAKRRFMDYFNENFHITTSGNFRTQTLIDAILEIGADRILFSTDWPFENIDHAADWFNATSIAEADRVKIGRTNARRLFKLDLD
modifications: Dicamba decarboxylase variant
As for B11, the figures for the “Fold Activity” value in assay [1] and in assay [2] were 1.4 fold and 1 fold, respectively.

B12: 150 (protein)
chain: MAQGKVALEEHFAIPETLQDSAGFVPGDYWKELQHRLLDIQDTRLKLMDAHGIETMILSLAAPAVQAIPDRRKAIEIARRANDFLAEECAKRPDRFLAFAALPLQDPDAATEELQRTVNDLGFVGALVNGFSQEGDGQTPLYYDLPQYRPFWGEVEKLDVPFYLHPRNPLPQDSRIYDGHPWLLGPTWAFAQETAVHALRLMASGLFDEHPRLNIILGHMGEGLPYMMYRIDHRIAWVKLPPRYPAKRRFMDYFNENFHITTSGNFRTQTLIDAILEIGADRILFSTDWPFENIDHAADWFNATSIAEADRVKIGRTNARRLFKLDGD
modifications: Dicamba decarboxylase variant
For B12, the entries for the “Fold Activity” value in assay [1] and in assay [2] were 1.1 fold and 1.4 fold, respectively.

B13: 143 (protein)
chain: MAQGKVALEEHFAIPETLQDSAGFVPSEYLKELQHRLLDIQDTRLKLMDAHGIETMILSLAAPAVQAIPDRRKAIEIARRANDFLAEECAKRPDRFLAFAALPMQDVDAATEELQRCVNDLGFVGALVNGFSVEGDGQTPLYYDLPQYRPFWGEVEKLDVPFYLHPRNPLPQDSRIYDGHPWLLGPTWAFAQETAVHALRLMASGLFDEHPRLNIILGHMGEGLPYMMYRIDHRIAWVHEPPRYPAKRRFMDYFNENFHITTSGNFRTQTLIDAILEIGADRILFSTDWPFENIDHAADWFNATSIAEADRVKIGRTNARRLFKLDGD
modifications: Dicamba decarboxylase variant
On to B13, for which the entries for the “Fold Activity” value in assay [1] and in assay [2] were 1.3 fold and 1.2 fold, respectively.
